Measured values from US9150638B2, “Factor XII inhibitors for treating interstitial lung disease” (Justus-Liebig-Universität Giessen, priority 2010, dated 2015).

Key:
[1] = tested on: Smad 3-SBE-272; assay: ChIP of the Smad 3-SBE-272 complex; assay type: cell-based, human
Description: ChIP was performed using Chromatin Immunoprecipitation Assay Kit from Millipore (Schwalbach, Germany) according to manufacturer's instruction. […] The cross-linked chromatin was then prepared and sonicated to an average size of 500-800 bp. The DNA fragments were immunoprecipitated with rabbit anti-Smad 3 antibody (Cell Signaling) or IgG isotype control overnight at 4° C. After reversal of cross-linking, the immunoprecipitated chromatin was amplified by PCR using following primers: human FXII-299 bp forward: [NT] ID NO:25); human FXII-299 bp reverse: [NT] ID NO:26).

[2] = tested on: Smad 3; assay: Western blot of Smad 3 phosphorylation in TGF-β1 treated HLF; assay type: cell-based, human
Description: (§1) Proteins separated on SDS polyacrylamide gel were transferred to a PVDF membrane (Amersham Biosciences, Freiburg, Germany) using wet transfer technique in transfer buffer (25 mM Tris, 192 mM Glycine, 20% (v/v) Methanol) for 1 h at 100V. After blocking with 5% non-fat dry milk in tris-buffered saline (TBS; 25 mM Tris-Cl, 150 mM NaCl, pH 7.5) containing 0.1% (v/v) Tween 20 (TBS-T), the membranes were incubated at 4° C. overnight with appropriate primary antibody diluted in 1% BSA in TBS-T. After 1 h incubation with peroxidase-labelled secondary antibody (all from Dako, Gostrup, Denmark) proteins were detected using ECL Plus Kit (Amersham Biosciences, Freiburg, Germany). To determine the amounts of protein loaded on the gel, blots were in 1 hour (stripping buffer: 100 mM Glycine, 1% HCl) and reprobed using an anti-β-actin or appropriate anti-pan antibody.

[3] = tested on: Smad 3; assay: TGF-β1 driven translocation of phospho-Smad 3 to the nucleus in HLF; assay type: cell-based, human
Description: as §1, with “antibody. […]” for “antibody.”
[…]. […] After boiling, the DNA-bound proteins were analyzed by Western blot using rabbit anti-phospho Smad 3 antibody (Cell Signaling). […]

[4] = tested on: FXII promoter; assay: FXII promoter luciferase assay in NIH3T3 cells; conditions: pGL3-299 construct; inhibitor 1 h prior to 10 ng/ml TGF-β1
[5] = tested on: FXII; assay: TGF-β1-induced FXII expression in HLF; assay type: cell-based, human; conditions: HLF treated with inhibitor 1 h prior to TGF-β1 for 48 h
Description: Human lung specimens of the pulmonary parenchyma and mouse lungs were chopped into <1 mm^3 pieces. The minced pieces were washed twice with PBS and then plated in 100-mm dishes (Greiner-bio-one, Frickenhausen, Germany). The specimens were cultured with Dulbecco's modified Eagle's medium (DMEM; Invitrogen, Karlsruhe, Germany) supplemented with 10% fetal calf serum (FCS; HyClone, South Logan, UT), and 1% penicillin/streptomycin (Invitrogen) in humidified atmosphere of 5% CO2 at 37° C. Purity of isolated fibroblasts was verified by positive staining for vimentin, fibronectin and collagen IV. All experiments were carried out with lung fibroblasts from passages 3-4. The mouse NIH3T3 fibroblasts were cultured in DMEM supplemented with 10% FCS, and 1% penicillin/streptomycin in humidified atmosphere of 5% CO2 at 37° C.
as §1
Pre-designed, commercially available siRNA sequences directed against human Smad 3 (Dharmacon, Chicago, Ill.), human JNK1 (Abnova, Heidelberg, Germany), and an universal negative-control siRNA (Ambion, Austin, Tex.) were employed. Cells were treated with siRNA (250 nM each) using the X-treme Gene siRNA Transfection Reagent (Roche). The siRNA-mediated downregulation of the target genes was assessed 72 h after transfection by Western blotting.

[6] = tested on: JNK; assay: Western blot of JNK activity in TGF-β1 treated HLF; assay type: cell-based, human
[7] = tested on: bleomycin induced lung fibrosis; assay: Bleomycin induced lung fibrosis in mice with intratracheal CTI
Description: Male mice weighing between 20-22 g were used in all experiments. Animals were kept according to NIH guidelines and experiments were undertaken with permission of local authorities. The animals were anesthetized by intraperitoneal injection of a mixture of ketamine hydrochloride and xylazine hydrochloride. Bleomycin in dosis 5U/kg body weight was given as aerosol. For bleomycin delivery, animals were orotracheally intubated and mechanically ventilated. A microsprayer (Penn-Century Inc, Philadelphia, Pa.) was filled with 100 μl of saline solution containing bleomycin, introduced into the tracheal cannula, positioned slightly above the carina and aerosol generation was achieved under end-expiratory breath arrest by rapidly emptying the syringe. Controls mice received vehicle only (0.9% saline). 5 mg/kg CTI and 8 mg/kg PCK, both diluted in 0.9% saline, were administrated intratracheally on day 9, 12, 15 and 18 in dosis or of mouse body weight, respectively. The mice were sacrificed after 21 days post application (if not indicated in the text) with a lethal dose of ketamine and xylazine.
Mice were tracheotomised and ventilated in a volume driven mode at a positive end-expiratory pressure of 0 kPa. Respiration rate was set at 20 breaths·min^−1 and ventilation pressure was recorded while inflating the lung at a tidal volume of 200 μL.
After sacrifice of animals, the chest was opened and the lungs were flushed via a catheter that was placed into the pulmonary artery with PBS buffer. Once the effluent was clear of blood, lungs were removed and placed in paraformaldehyde or nitrogen for further examination. For cells isolation lungs were placed in PBS buffer.
Paraffin-embedded, formalin-fixed lung tissue was sectioned at 5 microns and processed for immunohistochemical staining using appropriate primary antibody and ZytoChem Plus AP-Fast Red Kit according to the manufacturer's instructions (Zytomed Systems, Berlin, Germany). Negative controls were obtained in all cases by omitting the primary antibody.

[8] = tested on: p44/42; assay: Western blot of p44/42 phosphorylation after FXIIa exposure; assay type: cell-based, murine; conditions: after 30 min of FXIIa exposure
Description: as §1

[9] = target: T1, FXII (Homo sapiens, UniProt P00748); assay: FXII activity assay using chromogenic substrate, BALF from IPF patients; assay type: biochemical
T1 construct: increased enzymatic activity FXII in broncholaveolar lavage fluid (BALF) from IPF patients; from tissue; host or cells: bronchoalveolar lavage fluid (BALF) of IPF patients and donors
T1 sequence (P00748 20-615): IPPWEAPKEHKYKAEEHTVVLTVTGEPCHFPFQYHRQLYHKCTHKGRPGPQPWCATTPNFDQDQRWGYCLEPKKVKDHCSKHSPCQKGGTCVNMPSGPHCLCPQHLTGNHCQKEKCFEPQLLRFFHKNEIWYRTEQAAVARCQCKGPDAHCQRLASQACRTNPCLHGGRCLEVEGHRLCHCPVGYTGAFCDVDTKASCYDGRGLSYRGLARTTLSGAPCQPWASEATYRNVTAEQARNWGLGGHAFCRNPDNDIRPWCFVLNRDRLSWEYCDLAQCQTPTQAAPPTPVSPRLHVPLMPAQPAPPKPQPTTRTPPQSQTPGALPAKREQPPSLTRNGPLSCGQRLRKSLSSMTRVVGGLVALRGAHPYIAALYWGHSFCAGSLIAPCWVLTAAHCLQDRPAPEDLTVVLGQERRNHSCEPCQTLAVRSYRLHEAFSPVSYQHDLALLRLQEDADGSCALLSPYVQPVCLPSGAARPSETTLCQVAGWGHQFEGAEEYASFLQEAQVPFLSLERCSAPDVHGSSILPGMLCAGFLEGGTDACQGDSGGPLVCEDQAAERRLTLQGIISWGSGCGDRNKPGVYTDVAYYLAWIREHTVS
Description: A test for determining the catalytic activity of FXIIa is described in Kannemeier C, Shibamiya A, Nakazawa F, Trusheim H, Ruppert C, Markart P, Song Y, Tzima E, Kennerknecht E, Niepmann M, Bruehl M L, Sedding D, Massberg S, Gunther A, Engelmann B, Preissner K T. Extracellular RNA constitutes a natural procoagulant cofactor in blood coagulation. Proc Natl Acad Sci USA. 104:6388-6393, 2007. Briefly, the FXIIa-sample and a chromogenic substrate peptide is mixed, and the release of p-nitroanilin is followed over time in a photometer at 405 nm. A compound is suitable as an inhibitor of the catalytic, in particular the enzymatic activity of FXIIa if it is capable of reducing the catalytic activity in that assay in a significant manner, preferably by at least 10%, more preferably by at least 25%, most preferably by at least 50% such as at least 75% or even at least 90%.

[10] = tested on: Akt; assay: Western blot of Akt phosphorylation after FXIIa exposure; assay type: cell-based, murine; conditions: after 30 min of FXIIa exposure
Description: as §1

[11] = tested on: murine lung fibroblasts; assay: Proliferation assay, [3H]-thymidine incorporation after FXIIa stimulation; assay type: cell-based; conditions: added or preincubated 1-2 hours before FXIIa; 10.0 μM PD98059, 5 μM SP600125, 0.7 μM Wortmannin, 3 μM SB203580; blocking antibodies 5 μg/ml
Description: Human lung specimens of the pulmonary parenchyma and mouse lungs were chopped into <1 mm^3 pieces. The minced pieces were washed twice with PBS and then plated in 100-mm dishes (Greiner-bio-one, Frickenhausen, Germany). The specimens were cultured with Dulbecco's modified Eagle's medium (DMEM; Invitrogen, Karlsruhe, Germany) supplemented with 10% fetal calf serum (FCS; HyClone, South Logan, UT), and 1% penicillin/streptomycin (Invitrogen) in humidified atmosphere of 5% CO2 at 37° C. Purity of isolated fibroblasts was verified by positive staining for vimentin, fibronectin and collagen IV. All experiments were carried out with lung fibroblasts from passages 3-4. The mouse NIH3T3 fibroblasts were cultured in DMEM supplemented with 10% FCS, and 1% penicillin/streptomycin in humidified atmosphere of 5% CO2 at 37° C. The primary murine lung fibroblasts were seeded in 48-well plates and starved in serum free DMEM (Dulbecco's Modified Eagle's Medium) for 24 hours prior to FXIIa (American Diagnostica, Stamford, Conn.) stimulation. In some experiments cells were preincubated with 5 μg/ml anti-uPAR (R&D Systems, Wiesbaden, Germany), anti-β1-integrin or anti-α5-integrin (both from Millipore, Billerica, Mass.) blocking antibodies 1-2 hours before exposure to FXIIa. In addition in some experiment 10.0 μM PD98059, 5 μM SP600125, 0.7 μM Wortmannin, 3 μM SB203580 (all from Calbiochem, Darmstadt, Germany) were added to the cell culture medium 1-2 hours prior to the addition of FXIIa. Cells were treated with 3-9 μg/ml FXIIa alone or in the presence of its specific inhibitors: Corn Trypsin Inhibitor ([…]-chloromethylketone (PCK, Bachem, Weil am Rhein, Germany) or uPAR synthetic peptides. After 24-36 hours the cells were exposed to [3H]Thymidine (0.2 μCi per well) for 6-12 hours, rinsed three times with PBS and solubilized with 0.2 ml 0.5M sodium hydroxide. 0.1 ml of the solubilized material was quantified by liquid scintillation counting (TRI-CARB® 1500, A Canbera Company, Meriden, Conn.). [^3H]Thymidine incorporation was expressed as absolute radioactivity (counts per minute per well).

[12] = FIG. 25D,E, bleomycin application
[13] = day 21 after bleomycin, CTI 5 mg/kg intratracheally
[14] = saline control animals which received CTI

## NC(=O)c1ccc(-c2nc(-c3ccc4c(c3)OCO4)c(-c3ccccn3)[nH]2)cc1 [SB431542]
[1]; HLF pretreated with inhibitor 1 h prior to TGF-β1
  TGF-β1 induced Smad 3-DNA complex formation (ChIP): completely abolished
[1]; without TGF-β1, data not shown
  interaction of Smad3 with DNA, inhibitor alone: did not affect
[2]
  Smad 3 phosphorylation in response to TGF-β1: attenuated
[3]; HLF pretreated with inhibitor, TGF-β1 1 h
  TGF-β1-induced Smad 3 translocation to the nucleus: completely blocks
[3]; HLF, without TGF-β1, data not shown
  accumulation of Smad 3 in the nucleus, inhibitor alone: did not affect
[4]
  TGF-β1 driven luciferase activity: strongly reduced
[5]
  FXII expression in response to TGF-β1 (Western blot): reduction of FXII expression
[6]
  JNK activity / JNK1 phosphorylation in response to TGF-β1: attenuated

B1: CTI: Corn Trypsin Inhibitor, a specific FXII activity inhibitor (Calbiochem) (protein)
chain: SAGTSCVPGWAIPHNPLPSCRWYVTSRTCGIGPRLPWPELKRRCCRELADIPAYCRCTALSILMDGAIPPGPDAQLEGRLEDLPGCPREVQRGFAATLVTEAECNLATIS
[7]; FIG. 25A, bleomycin-treated mice
  lung remodelling and collagen deposition: largely protected against lung remodelling and collagen deposition
[7]; FIG. 25B, bleomycin-treated mice
  survival curves (Kaplan-Meier plot): significantly protected
[7]; [12]
  increase in collagen content: significantly prevented
  increase in septum thickness: significantly prevented
[7]; [13]
  collagen accumulation (Masson-Trichrom staining): markedly reduced
  histologic findings in the lungs (fibrotic lesions): less fibrotic lesions
[7]; day 21 after bleomycin, CTI 5 mg/kg intratracheally at day 9, 12, 15 and 18
  lung compliance: significantly improved
[7]; day 21 post bleomycin challenge, CTI 5 mg/kg intratracheally at day 9, 12, 15 and 18
  mortality: 20%
[7]; [14]
  histological changes in the lung: no histological changes in the lung
  inflammatory cells infiltration into airspaces: mild degree of inflammatory cells infiltration into airspaces
[8]
  p44/42 phosphorylation: attenuated
[9]
  FXII activity (chromogenic substrate): blockade of FXII activity
[10]
  Akt phosphorylation: attenuated
[11]
  FXIIa-induced proliferation ([3H]-thymidine incorporation): blocked
